Test: yeast display, Sf9 membrane polyspecificity reagent, FACS + sequencing; frameworks hold sequencing errors
How it was run: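 After 36–48 hours of galactose induction, yeast (Saccharomyces cerevisiae BJ5465) displaying a synthetic nanobody library were stained at 4 °C for 1 hour with 10% biotinylated, detergent-solubilized Sf9 membrane reagent. Streptavidin microbeads enriched the stained cells before FACS sorting into low and high (top ~1%) gates on anti-HA and streptavidin fluorescence. Each clone's polyreactivity label reflects its gate of origin.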

Row | Sequence | polyreactivity (PSR sort gate)
1 | QVQLVESGGGLVQAGGSLRLSCAASGSTFIKNAMGWYRQAPGKERELVAAIPWGGGSTYYADSVKGRFTISRDNAKNTVYLQMNSLKPEDTAVYYCAAGNDIWRYYGYDYWGQGTQVTVSS | low polyreactivity
2 | QVQLVESGGGLVQAGGSLRLSSAASGRTFGVNAMGWYRQAPGKERELVASISWGGGSTYYADSVKGRFTISRDNAKNTVYLQMNSLKPEDTAVYFCNRAYVRYVPMNYWGQGTQVTVSS | high polyreactivity
3 | QVQLVESGGGLVQAGGSLRLSCAASGSTFWYYAMGWYRQAPGKERELVAAISVRGGSTYYADSVKGRFTISRDNAKNTVYLQMNSLKPEETGVYYCAAVSYKSHRYDYWGQGTQVTVSS | high polyreactivity
4 | QVQLVESGGGLVQARGSLRLSCSASGSIIDIYAMGWYRQAPGKERELVAAITGGGSTNYADSVKGRFTISRDNAKNTVYLQMNILKPEDTAVYYCAAGTYLNGGGEYWGQGTQVTVSS | low polyreactivity
5 | QVQLVESGGGLVQAGGSLRLSCAASGSTFALYPMGCYRQAPGKERELVAGITIDGSTNYADSVKGRFTISRDNAKNTVYLQMNSLKPEDTAVYYCNADSYKYPLLKYRSDYWGQGTQVTVSS | low polyreactivity
6 | QVQLQESGGGLVLAGGSMRLSCAASGSISAHAYMGWERQAPGKEREHVAGINYGDNTNYADSVKGRFTISRDNEHRVSADEQPETGRYRGVLLRGFLELFYYYIYWGQGTQVTVSS | high polyreactivity
7 | QVQLVESGGGLVQAGGSLRLSCAASGSTFTVYAMGWYRQAPGKERELVAAISSSTGSTYYADSVKGRFTISRDNAKNTVYLQMNSLKPEDTAVSYCAADVYHVTTSSYTEFEYWGQGTQVTVSS | low polyreactivity
8 | QVQLVESGGGLVQAGGSLRLSCAASGSTLGYYAMGWYRQAPGKERELVAAISKGGGSTYYADSVKGRFTISRDNAKNTVYLQMNSLKPEETAVYYCAAYSTSWSRYDYWGQGTQVTVSS | high polyreactivity
9 | QVQLVESGGGLVQAGGSLRLSCAASGSTFTDYAMGWYRQAPGKERELVAAITKSGGSTYYADSVKGRFTISRDNAKNTVYLQMNSLKPEDTAVYYCAAGNHRRPADYGSWGQGTQVTVSS | low polyreactivity
10 | QVQLVESGGGLVQAGGSLRLSCAASGSTFYTYAMGWYRQAPGKERELVAAISGSGGRTYYADSVKGRFTISRDNAKNTVYLQMNSLKPEDTAVYYCAAYSYRKHATGSRDMDYWGQGTQVTVSS | high polyreactivity
11 | QVQLVESGGGLVQAGGSLRLICAASGFIFFGNALGWYRQAPGKERELVAVITWSGGSTYADSVKGRFTISRDNAKNTVYLLMNSLKPEDTAVYYCAFVTPYWSFYEQVIPSNYWGQGTQVTVSS | low polyreactivity
12 | QVQLVESGRGLVQAGGSLRISCAASGSTFYPNAMGWYRQAPGKEREFVAAISTSAGRTYYADSVKGRFTISRDNAKNTVYLQMNSLKPEDTAVYYCNARYWVYYVYEFDSWGQGTQVTVSS | low polyreactivity
13 | QVQLVESGGGLVQAGGSLRLSCPASGSIFSLNAMGWSRQAPGKERELVAASGGGSTYYADSVKGRFTISRDNAKNTVYLQMNSLKPEDTAVYYCAARVLTDELDYWGQGTQVTVSS | low polyreactivity
14 | QVQLVESCGGLVQAGGSLRLSCAASGRTFNSYAIGWYRNAPGKERELVAAISWIGGSTYYADSVKGRFTISRDNAKNTVYLQMNSLKPEDTAVYYCAADSYRFYSGYYYWGQGTQVTVSS | low polyreactivity
15 | QVQLVESGGGLVQAGGSLRLSCAASGSTFKAYAMGWYRQAPGKERELVAAITKSGGRTYYADSVKGRFTISRDNAKNTVYLQMNSLKPEDTAVYYCAAVFRPDSSAYRYYYWGQGTQVTVSS | high polyreactivity
16 | QVQLVESGGVLVQAGGSLRLSCAASGRTVTVNAMGWYRQAPGKERELVAAITGRGGNTNYADSLKGRFTISRDNAKNTVYLQMNSQKPEDTAVFYCYARYHGRAKHDYWGQGTQVTVSS | high polyreactivity
17 | QFQLVESGGGLVQAGGSLRLSCAASGSTFVWNAMGWYRPAPGKERELVAAITNDGRTNYADSVKGRFTISRDNAKNTVYLKMNSLKPEDTAVYYCNADGYNSYWWNYYWGQGTQVTVSS | low polyreactivity
18 | QVQLVESGGGLVQAGGSLRLSCAAYAMGWYRQAPGKERELVAAMSSSGGSTYYADSVKGRFTISRDNAKTTVYLQMTSLKPEDTAVYYCARDPDTYFFPPTGYYTSGFDSWGQGTQVTVSS | low polyreactivity
19 | QVQLEESGGGLVQAGGSLRLSCAASGSIFRSYAMGWYRQAPGKEREFVAAINSRSGSTYYADSVKGRFTISRDNAKNTVYLQMNSLKPEDTAVYYCAAKFAQPDYRYDYWGQGTQVTVSS | high polyreactivity
20 | QVQLVESGGGLVQAGGSLRLSCAASGYIFYFNAMGRYRQAPGKERELVAVISDRDDSTYYADSVKGRFTISRDNAKNTVYLQMNSLKPEDTAVYYCAADGDTYVDDPYDYWGQGTQVTVSS | low polyreactivity
21 | QVQLVESGGGLVQAGGSLRLSCAPSGSIFGGYAMGWYRQAPGKERELVAGITYSGDSTYYADSVKGRFTISRDNAKYTVYLQMNSLKPEDTAVYYCNADQRVDHDDFDYWGQGTQVTVSS | low polyreactivity
22 | QVQLVESGGGLVQAGGSLRLSCAASGFTFTAYAMGLYRQAPGKERQLVAAINWSGSRTYYADSVKGRFTISRDNAKNTVYLQMNSLKPEDSAVYYCNTPTSKSSYRHYDYWGQGTQVTVSS | high polyreactivity

Row | Sequence | polyreactivity (PSR sort gate)
23 | QVQLVESGGGLVQAGGSLRLSCAASGSTFPIYAMGWYRQAPGKERELVAAITRSGGSTNYADSVKGRFTISRDNAKNTVYLQMNSLKPEDTAVYYCNRTRYRSFHYDYWGQGTQVTVSS | high polyreactivity
24 | QVQLVESGGGLVKAGGSLRLSCAASGRIFYYNTMGWYRQAPGKERELVAAITTNGGSTYYADSVKGRFTISRDNAKNTVYLQMNSLKPEDTAVYYCNRDRYPYYYAYNYWGQGTQVTVSS | low polyreactivity
25 | QVQLEESGGGLVQAGGSLRLTCAASGFTFGYYTMGWYRQAPGQERELVAAISSGGSTNYADSVKGRFTISRDNAKNTVYLEMNSLKPEDTAVYYCTATQIGPYYLPFDSWGQGTQVTVSS | high polyreactivity
26 | QVQVVESGGALVQAGGSLRLSCAASGRIFSPYAMGWYRQAPGKESELVAAITSASSTYYADSVKGRFTISRDNAKNTVYLEMNRLKPEDTAVYYCAASYWRYGSAFDYWGQGTQVTVSS | high polyreactivity
27 | QFQLVEYGGGLFQAGGSLRLSCDASGSIFPYNDLGWYRQAPGKERELVARITNGGSTNYADSVKGRFTISRDNAKNTFYLQMNSLKPEDTAGYYCNKDGTQEFAPDGHEYWGQGTQVTVSS | low polyreactivity
28 | QVQLVESGGGLVQAGGSLRLSCAASGSIFIDYAMGWYRQAPGKERELVATISNSGTSTYYADSVKGRFTISRDNAKNTVYLQMNSLKPEDTAVYYCAAEAWPYGDYYWGQGTQVTVSS | low polyreactivity
29 | QVQLVESGGGLVQAGGSLRLSCAASGSIFPAYAMGWYRQAPGKERELVAAITFSGGRTYYADSVKGRFTISRDNAKNTVYLQMNSLKPEDTAVYYCAAYGAPSGTGAKYGYWGQGTQVTVSS | low polyreactivity
30 | QVQLVESGGGLVQAGGSLRLSCAASGRIFRINAMGWYRQAPGKERELVATISSGGGSTYADSVKGRFTISRDNAKTTVYLQMNSLKPEDTAVYYCAARSRIGRYTYDYWGQGTQVTVSS | high polyreactivity
31 | QVQLVESGGGLVQAGGSLRLSCAASGIIFGSYAMGWSRQAPGKERELVAAISYSGSTFYADSVKGRFTISRDNAKNTVYLQMNSLKPEDTAVYYCNADRYAKWYRKYRPNDYWGQGTQVTVSS | high polyreactivity
32 | QVQLVDSGGGLVQAGGSLRLRCAASGITYSYYTKGWYRQAPGKERDLVAGITRSGSTYYADSVKGRFTISRDNAYNTVYLQMNSLKPEDTAVYYCNARARGAYNRPNYPRYYYWGQGTQVTVSS | high polyreactivity
33 | QVQLEESGGGLVQAGGSLRLSCAASGSTFYIYAMGSYRQAPGKERELVARMSGSGGSTYYADSVKGRFTISRDNAKNTVYLQMNSVKPEDTAVYYCAADDIYKYYQYYAFPYYRYDYWGQGTQVTVSS | low polyreactivity
34 | QVQLQESGCGLVQAGGSLRLSCAASGDIIEADDMGWYRQAPGKERELVASITDGGSTNCADSMKGRSTICRDNAKITVYLQMNSLKLEDTAVYYCAAIAYPDVPTYFDYDSDYFYWGQGTLVTVSS | high polyreactivity
35 | QVQLVESGGGLVQAGGSLRLSCAASGRIFTINAMGWYRQAPGKERELVAAISWSGVRTYYADSVKGRFTISRDNAKNTVYLQMNSLKPEDTAVYYCAKRRQYQRSYNYWGQGTQVTVSS | low polyreactivity
36 | QVQLVESGGGLVQAGGSLRLSCAASGFTFLVNTMGWYRQAPGKERELVAATITSTGASTYYADSVKGRFTISRDNAKNTVYLQMNSLKPEDTAVYYCAVDPGGGNYIYYYNEYDYWGQGTQVTVSS | low polyreactivity
37 | QVQLVESGGGLVQAGGSLRLSCAASGRIFTRYAMGWYRQAPGKERELVATITRRGGSTYYADSVKGRFTISRDNAKNTVYLQMNSLKPEDTAVYYCAKDRTTSSFGEYDYWGQGTQVTVSS | high polyreactivity
38 | QVQLVESGGGLVQAGGSLRLSCAASGLTFRKYAMGWYRQAPGKERELVATISRNGGSTYFADSVKGRFTISRDNAKNTVYLQMNSLKPEDTAVYYCAADYYTYDYAGYGYWGQGTQVTVSS | high polyreactivity
39 | QVQLVESGGGLVQAGGSLRLSCASSGFTFWYTMGWYRQAPGKEREFVAAITSGGGRTYYADSVKGRFTISRDNAKNTVYLQMNSLKPEETAVYYSAADSYYSWYDYWVQGTQVTVSS | high polyreactivity
40 | QVQLVESGGGLVQAGGSLRLSCAASGLTLYRYAMGWYRQPPGKEREMVAGISWGGGSTYYADSVKGRFTISRDNAKNTVYLQMNSLKPEDTAVYYCAAGRLLYIPRYYYWGQGTQVTVSS | high polyreactivity
41 | QVQLVESGGGLVQAGGSLRLSCAASGRIFYGYAMGWYRQAPGKERELVAASRYSGGSTYADSVKGRFTISRDNAKNTVFLQMNSLKPEVTAVYYCAAGDAPYVAWDQYQDNVFRYDYWGQGTQVTVSS | low polyreactivity
42 | QVQLVESGGGLVQAGGSLRLSCAPSGFTFSQYAMGWYRQAPGKEREFVAAISRSGGSTYYADSVKGRFTISRDNAKNTVYLQMNSLKPEDTAVYYCAAGLVATFSRRGRASYRYNYWGHGTQVTVSS | high polyreactivity
43 | QVQLVESGGGLVQAGGSLRLSCAASGSTFLGYTMGWSRQAPGKERELVATITRRGGRTSYADSVKGRFTISRDNAKNTVYLQMNSLKPEDTAVYYCATDSKRSSVPWNTYDYWGQGTQVTVSS | high polyreactivity
